For this test, the target named is mouse hypoxia inducible factor-2 alpha (mouse, UniProt P97481 1-874). The test can be described thus: cell-based or functional assay.
Chain of mouse hypoxia inducible factor-2 alpha (P97481 whole entry): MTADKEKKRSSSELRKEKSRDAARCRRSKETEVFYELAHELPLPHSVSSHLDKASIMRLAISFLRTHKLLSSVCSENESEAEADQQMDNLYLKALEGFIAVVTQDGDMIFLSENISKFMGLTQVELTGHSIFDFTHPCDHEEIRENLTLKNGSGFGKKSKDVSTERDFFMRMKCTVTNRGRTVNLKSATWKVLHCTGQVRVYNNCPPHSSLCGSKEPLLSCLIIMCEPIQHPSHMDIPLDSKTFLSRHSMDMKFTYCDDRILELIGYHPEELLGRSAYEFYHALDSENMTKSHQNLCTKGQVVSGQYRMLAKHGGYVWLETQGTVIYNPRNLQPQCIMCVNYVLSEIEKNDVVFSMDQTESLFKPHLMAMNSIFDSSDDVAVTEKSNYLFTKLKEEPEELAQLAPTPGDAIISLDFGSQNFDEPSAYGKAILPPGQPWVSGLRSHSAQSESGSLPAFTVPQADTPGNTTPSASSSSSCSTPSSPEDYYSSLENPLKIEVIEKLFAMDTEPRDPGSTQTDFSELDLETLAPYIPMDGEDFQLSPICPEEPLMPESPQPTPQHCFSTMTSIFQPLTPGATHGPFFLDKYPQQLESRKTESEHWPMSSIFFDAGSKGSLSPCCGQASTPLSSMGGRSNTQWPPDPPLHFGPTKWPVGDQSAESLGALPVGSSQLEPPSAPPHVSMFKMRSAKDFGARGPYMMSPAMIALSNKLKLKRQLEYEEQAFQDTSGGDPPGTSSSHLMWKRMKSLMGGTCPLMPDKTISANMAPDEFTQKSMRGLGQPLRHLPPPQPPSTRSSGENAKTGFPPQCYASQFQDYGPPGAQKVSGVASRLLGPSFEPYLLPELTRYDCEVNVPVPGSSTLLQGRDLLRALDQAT

B1: human prolyl 4-hydroxylase PH-2 (enzyme)
chain: MAAAAVTGQRPETAAAEEASRPQWAPPDHCQAQAAAGLGDGEDAPVRPLCKPRGICSRAYFLVLMVFVHLYLGNVLALLLFVHYSNGDESSDPGPQHRAQGPGPEPTLGPLTRLEGIKVGHERKVQLVTDRDHFIRTLSLKPLLFEIPGFLTDEECRLIIHLAQMKGLQRSQILPTEEYEEAMSTMQVSQLDLFRLLDQNRDGHLQLREVLAQTRLGNGWWMTPESIQEMYAAIKADPDADGVLSLQEFSNMDLRDFHKYMRSHKAESSELVRNSHHTWLYQGEGAHHIMRAIRQRVLRLTRLSPEIVELSEPLQVVRYGEGGHYHAHVDSGPVYPETICSHTKLVANESVPFETSCRYMTVLFYLNNVTGGGETVFPVADNRTYDEMSLIQDDVDLRDTRRHCDKGNLRVKPQQGTAVFWYNYLPDGQGWVGDVDDYSLHGGCLVTRGTKWIANNWINVDPSRARQALFQQEMARLAREGGTDSQPEWALDRAYRDARVEL
B1: the “activity of HIF-2 alpha on the hypoxia responsive reporter gene construct (equal amounts of each plasmid); activity of PH-2 relative to EGLN3” value is 2 fold less active than EGLN3.

The values above are taken from patent publication US20060110769A1 (Bayer, published 2006).
